US20020147170A1 (priority 2000, published 2002)

Key:
MC-4 receptor [1] = biological target: T1, MC-4 receptor (Homo sapiens, UniProt P32245, D146M); experiment: SMS-Luc luciferase reporter assay in HEK293 cells; assay type: cell-based
T1 construct: expressed in transfected cells; host or cells: HEK293
Experimental: Briefly, HEK293 cells were cotransfected, as described above, with an expression vector encoding either the wild-type MC-4 receptor or the Asp146Met mutant MC-4 receptor and the reporter construct, SMS-Luc. As a negative control, cells were transfected with SMS-Luc and pcDNA1. Basal and ligand (αMHS) induced activity of the negative control, the wild-type MC-4 receptor, and the Asp146Met mutant MC-4 receptor were measured using the luciferase assay described above.

MC-4 receptor [2] = biological target: T1, MC-4 receptor; experiment: Basal level cAMP production; assay type: cell-based; details: FIG. 2
Experimental: As but one example, ligand-dependent activation of the melanocortin-4 (MC-4) receptor is assayed by measuring an increase in cAMP production (Huszar et al., Cell 88:131-141, (1997)).

rat mu opioid receptor [3] = experiment: CRE-Luc luciferase reporter assay with forskolin stimulation; assay type: cell-based; details: CRE-Luc luciferase reporter, FIG. 4
Text: (§1) The response element employed in this assay was the cAMP-response element (CRE), which is sensitive to Gαi mediated reductions in intracellular levels of cAMP. Signaling through the rat mu opioid receptor via Gαi inhibits adenylate cyclase, causing a decrease in intracellular cellular cAMP. Therefore, an increase in rat mu opioid receptor signaling induces a decrease in CRE mediated reporter activity.
(§2) Mutation induced Gαi-mediated decreases in intracellular cAMP were, prior to the present invention, more often measured by 1) stimulating cells with forskolin, which causes receptor-independent activation of adenylate cyclase and generates an intracellular pool of cAMP; 2) stimulating the cells with ligand; and 3) measuring the ligand-induced, receptor-dependent Gαi-mediated decrease in the intracellular cAMP pool (e.g., using a radioimmunoassay (e.g., New England Nuclear, Boston, Mass.)). […] Specifically, cells transfected with a CRE-Luc reporter construct (Stratagene, La Jolla, Calif.) and an expression vector encoding either a wild-type or a mutant rat mu opioid receptor were stimulated with 0.5 μM or 2 μM forskolin to increase the intracellular pool of cAMP. The basal (and ligand-induced) level of receptor activity was then measured using a standard luciferase assay (see FIG. 4). Coexpression of the receptor of interest with a luciferase reporter gene construct allows one to measure light emission as a readout for basal signaling.
(§3) This decrease in activity indicates an increase in the basal level activity of the mutant rat mu opioid receptor, because activation of the rat mu opioid receptor induces a decrease in CRE-mediated reporter activity (FIG. 4, compare 0.5 μM wild-type vs. 0.5 μM mutant and 2 μM wild-type vs. 2 μM mutant).

rat mu opioid receptor [4] = biological target: T2, rat mu opioid receptor (Rattus norvegicus, UniProt P33535, N150A); experiment: SRE-Luc/Gq5i luciferase reporter assay in HEK293 cells; assay type: cell-based; details: see Example 1
T2 construct: expressed in transfected cells; host or cells: HEK293 (stated for the SRE-Luc/Gq5i assay); receptor gene in pcDNA1
Text: (§4) A positive assay for Gαi coupling (i.e., one that yields an increase in luciferase activity upon receptor activation, instead of a negative assay, one that yields a decrease in luciferase activity upon receptor activation), provides a detectable output signal and less interassay variation. It was hypothesized that Gαi coupling could be detected by altering the signaling pathway generated by Gαi coupled receptors. A chimeric G protein (Gqi5, Broach and Thorner, Nature 384 (Suppl.): 14-16 (1996)) that contains the entire Gαq protein having five C-terminal amino acids from Gαi attached to the C-terminus of Gαq has been generated. This chimeric G protein is recognized as Gαi by Gαi coupled receptors, but switches the receptor induced signaling from Gαi to Gαq. This allows Gαi receptor coupling to be detected using a positive assay by use of the Gαq responsive SMS-Luc or SRE-Luc construct (Stratagene, La Jolla, Calif.). SMS and SRE preferably respond to Gαq mediated inositol and calcium production. Moreover, detection can be carried out in the absence of forskolin pre-stimulation of cells.
(§5) Reagents & Solutions: The cell culture media used in the assays described below was Gibco BRL #12100-046. This media was made according to manufacturer's recipe, pH adjusted to 7.2, filtered (0.22 micron pore), and supplemented with 1% Pen/Strep (Gibco #15140-122; 100% penicillin G 10,000 units/ml, and streptomycin 10,000 μg/ml) and 10% fetal bovine serum. Cell culture media lacking 10% fetal bovine serum was also generated. DNA used in the transfection experiments was purified and quantitated by measuring the absorbance at OD260. A LucLite Luciferase Assay Kit (Packard) was used to quantitate luciferase activity. Transfections were carried out using LipofectAMINE Reagent (Gibco #18324-012).
(§6) The rat mu opioid receptor is a Gαi coupled receptor. Therefore we chose to use the Gq5i reporter system, described in detail above (Broach and Thorner, supra), which switches the signaling pathway from Gαi to Gαq for reliable positive readout. HEK293 cells were transfected with the reporter construct SRE-Luc, an expression vector containing nucleic acid encoding Gq5i (Broach and Thorner, supra), and an expression vector containing nucleic acid encoding either the wild-type or the Asn150Ala mutant rat mu opioid receptor. Basal and ligand-stimulated luciferase activity was measured. The ligand used in this assay was [D—Ala^2—MePhe^4, Gly-ol^5]enkephalin] (DAMGO). As a negative control, HEK293 cells were transfected with pcDNA1 (empty vector DNA), SRE-Luc, and the expression vector containing nucleic acid encoding Gq5i (Broach and Thorner, supra).
(§7) The luciferase assay was carried out as follows. On day 1, HEK293 cells in a T75 flask were washed with 15 ml serum-free media (or PBS), trypsinized with 5 ml 0.05% trypsin-EDTA (Gibco #25300-062), incubated at 37° C. for 3 minutes at which time 6-7 ml complete HEK293 media (Gibco #12100-046) and 10% Fetal Bovine Serum (Intergen #1050-90) were added. Thereafter, cells were collected in 50 ml centrifuge tubes, pelleted at 800-900 rpm (RCF˜275), and resuspend in 20 ml complete media. The cells were counted using a haemocytometer and diluted to 85,000 cells/ml in complete media. Using a repeat pipettor or cell plater, 100 μl of cells were added to each well of a Primaria 96-well plate (Falcon #353872). Cells were then incubated at 37° C., 5% CO2 until use at 48 hours.
(§8) On day 3, cells were transfected using LipofectAMINE™ according to the manufacturer's protocol (Gibco #18324-012, Rockville, Md.).
(§9) On day 4, cells were stimulated as follows. Ligands for the receptor, either DAMGO or a non-peptide ligand (e.g., naloxone or naltrexone), were diluted to a desired concentration in serum-free media containing 0.15 mM PMSF (or other protease inhibitor(s)). […]

rat mu opioid receptor [5] = experiment: as above; assay type: cell-based; details: SRE + Gq5i
Text: as §4, §5, §6, §7, §8, §9

rat mu opioid receptor [6] = biological target: T2, rat mu opioid receptor; experiment: CRE-Luc luciferase reporter assay with forskolin stimulation; assay type: cell-based; details: CRE-Luc, 0.5 μM or 2 μM forskolin
Text: as §1, §2, §3

mu opioid receptor = experiment: Luciferase activity on DAMGO titration (FIG. 15); assay type: cell-based, rat; details: DAMGO titrated onto cells
Experimental: Ligand (Damgo) was titrated onto the cells expressing either the mutant or the wild-type mu opioid receptor and the luciferase activity was measured to assess the sensitivity of the receptor to ligand stimulation.
It is important to note that the mu opioid receptor of the invention is also hypersensitive.

CCK-BR [7] = biological target: T3, CCK-BR (Homo sapiens, UniProt P32239, L325E); experiment: Luciferase reporter assay (SMS-Luc, SRE-Luc) in HEK293 cells; assay type: cell-based
T3 construct: expressed in transfected cells; host or cells: HEK293
T3 sequence (P32239 1-447 L325E): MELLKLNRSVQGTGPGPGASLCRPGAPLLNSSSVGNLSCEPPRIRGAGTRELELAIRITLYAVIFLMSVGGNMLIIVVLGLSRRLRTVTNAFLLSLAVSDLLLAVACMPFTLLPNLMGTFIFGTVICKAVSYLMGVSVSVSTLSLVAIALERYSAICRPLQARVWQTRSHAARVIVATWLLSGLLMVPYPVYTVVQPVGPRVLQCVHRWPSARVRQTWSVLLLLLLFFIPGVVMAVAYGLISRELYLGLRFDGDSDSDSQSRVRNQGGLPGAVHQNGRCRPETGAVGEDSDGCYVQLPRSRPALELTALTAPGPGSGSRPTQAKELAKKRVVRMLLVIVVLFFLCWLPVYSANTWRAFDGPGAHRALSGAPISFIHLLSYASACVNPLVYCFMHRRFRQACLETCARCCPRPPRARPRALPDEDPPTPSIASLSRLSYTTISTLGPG
Text: as §1
HEK293 cells were transfected (as described above) with SMS-Luc and an expression vector encoding any one of pcDNA1, wild-type CCK-BR, or Leu325Glu CCK-BR.

CCK-BR [8] = details: COS-7 cells, absence of agonist; cited from earlier work

T1 sequence (P32245 whole entry D146M): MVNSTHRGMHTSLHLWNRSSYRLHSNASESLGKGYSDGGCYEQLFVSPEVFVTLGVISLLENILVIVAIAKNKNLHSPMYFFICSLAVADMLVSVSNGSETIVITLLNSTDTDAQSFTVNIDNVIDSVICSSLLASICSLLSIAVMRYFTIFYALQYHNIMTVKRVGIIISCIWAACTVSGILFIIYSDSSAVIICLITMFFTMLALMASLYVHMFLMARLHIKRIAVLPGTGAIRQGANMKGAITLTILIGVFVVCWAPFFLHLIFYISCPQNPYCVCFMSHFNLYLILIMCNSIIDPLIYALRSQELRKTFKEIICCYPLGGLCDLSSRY

Asp146Met mutant MC-4 receptor: melanocortin-4 receptor with Asp at position 146 (DRY motif) replaced by Met
basal level activity vs wild-type (MC-4 receptor [1]): higher basal level activity than its wild-type counterpart | constitutive activity by basal level cAMP production (MC-4 receptor [2]): constitutive activity

C[C@@H](NC(=O)[C@@H](N)Cc1ccc(O)cc1)C(=O)NCC(=O)N(C)[C@@H](Cc1ccccc1)C(=O)NCCO [DAMGO, [D—Ala^2—MePhe^4, Gly-ol^5]enkephalin], reference compound]
effect of agonist stimulation of the receptor on forskolin induced activity (rat mu opioid receptor [3]): decrease in forskolin induced activity

B1: Asn150Ala rat mu opioid receptor: rat mu opioid receptor (SEQ ID NO: 1) with Asn to Ala point mutation at position 150, expressed from pcDNA1 (protein)
chain: MDSSTGPGNTSDCSDPLAQASCSPAPGSWLNLSHVDGNQSDPCGLNRTGLGGNDSLCPQTGSPSMVTAITIMALYSIVCVVGLFGNFLVMYVIVRYTKMKTATNIYIFNLALADALATSTLPFQSVNYLMGTWPFGTILCKIVISIDYYAMFTSIFTLCTMSVDRYIAVCHPVKALDFRTPRNAKIVNVCNWILSSAIGLPVMFMATTKYRQGSIDCTLTFSHPTWYWENLLKICVFIFAFIMPVLIITVCYGLMILRLKSVRMLSGSKEKDRNLRRITRMVLVVVAVFIVCWTPIHIYVIIKALITIPETTFQTVSWHFCIALGYTNSCLNPVLYAFLDENFKRCFREFCIPTSSTIEQQNSTRVRQNTREHPSTANTVDRTNHQLENLEAETAPLP
basal activity relative to the maximal level of ligand-stimulated second messenger signaling (rat mu opioid receptor [4]): exceeded 50% | Average Ligand Stimulated Activity (Light Emission) (rat mu opioid receptor [5]; HEK293 cells, ligand DAMGO): 86,996 | Average Basal Activity (Light Emission) (rat mu opioid receptor [5]; HEK293 cells, no ligand): *56,498 | stimulation of basal level activity (rat mu opioid receptor [5]; mutant vs wild-type receptor, listed as Asn150Ala mutant mu opioid receptor): approximately 6.5 fold | basal activity (forskolin-induced, no receptor stimulation) vs wild-type receptor (rat mu opioid receptor [6]): reduction in basal activity | level of constitutive activity relative to ligand-stimulated activity of the wild-type receptor (rat mu opioid receptor [6]): 50% | sensitivity of the receptor to ligand stimulation vs wild-type (mu opioid receptor; listed as Asn150Ala rat mutant mu opioid receptor): hypersensitivity | sensitivity of the receptor to ligand stimulation vs wild-type (mu opioid receptor; listed as mutant receptor): responsive to a lower concentration of ligand than the wild-type receptor

B2: Leu325Glu CCK-BR mutant: human CCK-BR with point mutation Leu325Glu in the third intracellular loop (protein, UniProt P32239 1-447, looked up, variant L325E)
Gastrin/cholecystokinin type …: MELLKLNRSVQGTGPGPGASLCRPGAPLLNSSSVGNLSCEPPRIRGAGTRELELAIRITLYAVIFLMSVGGNMLIIVVLGLSRRLRTVTNAFLLSLAVSDLLLAVACMPFTLLPNLMGTFIFGTVICKAVSYLMGVSVSVSTLSLVAIALERYSAICRPLQARVWQTRSHAARVIVATWLLSGLLMVPYPVYTVVQPVGPRVLQCVHRWPSARVRQTWSVLLLLLLFFIPGVVMAVAYGLISRELYLGLRFDGDSDSDSQSRVRNQGGLPGAVHQNGRCRPETGAVGEDSDGCYVQLPRSRPALELTALTAPGPGSGSRPTQAKELAKKRVVRMLLVIVVLFFLCWLPVYSANTWRAFDGPGAHRALSGAPISFIHLLSYASACVNPLVYCFMHRRFRQACLETCARCCPRPPRARPRALPDEDPPTPSIASLSRLSYTTISTLGPG
basal activity detected by the SMS and SRE response elements (CCK-BR [7]; SMS and SRE response elements, Gαq coupled, FIG. 3): increase in basal activity | basal level activity vs wild-type CCK-BR (CCK-BR [7]; SMS-Luc, HEK293 cells): increased basal level activity | agonist-independent constitutive activity (inositol phosphate production) (CCK-BR [8]): triggers constitutive production of inositol phosphates to levels exceeding wild-type CCK-BR
